Experimental data published in patent US7597889.

Columns and labels:
human FcγRI (human) [1] = molecular target: human FcγRI (human) (UniProt P12314); test: fluorescent staining of FcγRI transfectants, flow cytometry
human FcγRI (human) [2] = molecular target: human FcγRI (human) (UniProt P12314); test: rosetting after centrifuging RBC coated with 1 µg/ml Fog-1 G1 together with B2KA cells
human FcγRI (human) [3] = molecular target: human FcγRI (human) (UniProt P12314); test: rosetting of FcγRI-bearing B2KA cells by R2R2 RBC coated with Ab; coating concentration
FcγRIIa 131H/H (human) = FcγRIIa 131H/H (human) (UniProt P12318); test: staining of 3T6+FcγRIIa 131H/H cells with complexed Ab (summary)
Sequence of UniProt P12318 (P12318 34-317): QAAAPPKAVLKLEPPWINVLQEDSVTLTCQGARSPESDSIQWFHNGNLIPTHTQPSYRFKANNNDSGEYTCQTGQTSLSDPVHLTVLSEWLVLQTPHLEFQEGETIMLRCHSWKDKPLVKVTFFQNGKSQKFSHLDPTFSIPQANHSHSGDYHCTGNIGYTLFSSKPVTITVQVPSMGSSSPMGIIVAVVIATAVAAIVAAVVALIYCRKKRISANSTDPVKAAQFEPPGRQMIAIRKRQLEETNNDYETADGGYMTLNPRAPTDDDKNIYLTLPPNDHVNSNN

Sequence of UniProt P12314 (P12314 16-374): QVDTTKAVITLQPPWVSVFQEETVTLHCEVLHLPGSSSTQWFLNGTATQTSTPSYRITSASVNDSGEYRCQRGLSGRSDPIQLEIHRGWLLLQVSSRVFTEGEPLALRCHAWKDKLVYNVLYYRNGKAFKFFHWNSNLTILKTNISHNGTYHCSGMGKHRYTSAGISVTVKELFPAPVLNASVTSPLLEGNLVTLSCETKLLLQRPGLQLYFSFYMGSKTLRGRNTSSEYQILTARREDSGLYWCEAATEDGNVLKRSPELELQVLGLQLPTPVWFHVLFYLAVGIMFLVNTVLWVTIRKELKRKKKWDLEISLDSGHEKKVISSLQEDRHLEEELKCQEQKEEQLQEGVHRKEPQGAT

Substance | fold reduction of binding against the parent subclass (human FcγRI (human) [1]) [fold] | also measured
CAMPATH-1 G1Δab (antibody) | > 10000 | –
CAMPATH-1 G1Δac (antibody) | > 10000 | –
CAMPATH-1 G1Δb (antibody) | > 10000 | –
CAMPATH-1 G1Δc (antibody) | > 10000 | –
CAMPATH-1 G4Δb (antibody) | > 10000 | –
CAMPATH-1 G4Δc (antibody) | > 10000 | –
Fog-1 G1 (antibody) | – | percent of B2KA cells with rosettes (human FcγRI (human) [2]): 95%; EC50 (human FcγRI (human) [3]): 0.1 µg/mL
Fog-1 G1Δa (antibody) | – | EC50 (human FcγRI (human) [3]): 0.1 µg/mL
Fog-1 G1Δab (antibody) | > 10000 | –
Fog-1 G1Δac (antibody) | > 10000 | –
Fog-1 G1Δb (antibody) | > 10000 | fold lower activity than IgG1 (FcγRIIa 131H/H (human)): 50 fold
Fog-1 G1Δc (antibody) | > 10000 | fold lower activity than IgG1 (FcγRIIa 131H/H (human)): 10 fold
Fog-1 G4Δb (antibody) | > 10000 | –
Fog-1 G4Δc (antibody) | > 10000 | –
